From patent US20110008345A1 (GlaxoSmithKline, published 2011)
Several values for one entry are separate records, joined by “and”; a condition that tells them apart may be missing. Identical values can stand only once. Like-named read-outs stand apart in the source and are kept apart here.

Tests used:
[1] = biological target: T1, recombinant E. coli-expressed human IL-13 (human, UniProt P35225 35-146); assay: SPR
T1 construct: made and purified at GSK; also called Interleukin-13; rhIL-13

[2] = biological target: T2, recombinant E. coli-expressed human IL-4 (human, UniProt P05112 25-153); assay: ELISA, IL-4 binding to IL4Ralpha-Fc
T2 construct: made and purified at GSK; also called Interleukin-4; rhIL-4
T2 sequence: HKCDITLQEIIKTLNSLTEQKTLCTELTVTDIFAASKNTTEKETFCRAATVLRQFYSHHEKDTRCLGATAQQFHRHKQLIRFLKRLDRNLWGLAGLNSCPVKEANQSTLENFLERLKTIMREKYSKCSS

[3] = biological target: T1, recombinant E. coli-expressed human …; assay: cell-based or functional assay
[4] = biological target: T2, recombinant E. coli-expressed human IL-4; assay: cell-based or functional assay
[5] = biological target: T1, recombinant E. coli-expressed human …; assay: SPR, purified
[6] = biological target: T1, recombinant E. coli-expressed human …; assay: SPR, no IL-4 bound
[7] = biological target: T1, recombinant E. coli-expressed human …; assay: SPR, human IL-4 bound first
[8] = biological target: T2, recombinant E. coli-expressed human IL-4; assay: SPR
[9] = biological target: T2, recombinant E. coli-expressed human IL-4; assay: SPR, poor curve fit
[10] = biological target: T3, recombinant E. coli-expressed cynomolgus IL-13 (cynomolgus, UniProt Q0PW92 21-132); assay: SPR
T3 construct: also called cyno IL-13

[11] = biological target: T4, recombinant E. coli-expressed cynomolgus IL-4 (cynomolgus, UniProt P79339 25-153); assay: SPR
T4 construct: also called cyno IL-4
T4 sequence (looked up): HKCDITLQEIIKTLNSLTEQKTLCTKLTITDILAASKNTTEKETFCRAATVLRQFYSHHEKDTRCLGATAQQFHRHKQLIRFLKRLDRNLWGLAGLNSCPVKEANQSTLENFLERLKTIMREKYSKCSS

[12] = biological target: T1, recombinant E. coli-expressed human …; assay: SPR; remark: listed apart in the source
[13] = biological target: T1, recombinant E. coli-expressed human …; assay: SPR exp 3
[14] = biological target: T2, recombinant E. coli-expressed human IL-4; assay: SPR, purified
[15] = biological target: T5, CD20 on CD20 positive cell line (Wein133) (UniProt P11836 1-297, limits assumed); assay: flow cytometry, Wein133 cells
T5 construct: whole, on cells
T5 sequence (looked up): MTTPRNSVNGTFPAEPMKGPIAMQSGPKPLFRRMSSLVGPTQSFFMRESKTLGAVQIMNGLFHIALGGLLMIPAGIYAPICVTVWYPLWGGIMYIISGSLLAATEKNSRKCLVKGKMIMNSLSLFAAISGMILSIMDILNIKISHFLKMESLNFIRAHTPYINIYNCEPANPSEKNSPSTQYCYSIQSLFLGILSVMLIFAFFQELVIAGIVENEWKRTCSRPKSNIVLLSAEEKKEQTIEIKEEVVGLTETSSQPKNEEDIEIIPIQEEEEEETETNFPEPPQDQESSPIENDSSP

[16] = biological target: T1, recombinant E. coli-expressed human …; assay: SPR; remark: listed apart in the source
[17] = biological target: T3, recombinant E. coli-expressed …; assay: SPR; remark: listed apart in the source
[18] = biological target: T1, recombinant E. coli-expressed human …; assay: SPR; remark: listed apart in the source
[19] = biological target: T2, recombinant E. coli-expressed human IL-4; assay: SPR; remark: listed apart in the source
[20] = biological target: T1, recombinant E. coli-expressed human …; assay: cell-based or functional assay; remark: listed apart in the source
[21] = biological target: T3, recombinant E. coli-expressed …; assay: cell-based or functional assay
[22] = biological target: T3, recombinant E. coli-expressed …; assay: SPR; remark: listed apart in the source
[23] = biological target: T4, recombinant E. coli-expressed …; assay: SPR; remark: listed apart in the source
[24] = biological target: T1, recombinant E. coli-expressed human …; assay: cell-based or functional assay; remark: listed apart in the source
[25] = biological target: T3, recombinant E. coli-expressed …; assay: cell-based or functional assay; remark: listed apart in the source
[26] = biological target: T1, recombinant E. coli-expressed human …; assay: cell-based or functional assay; remark: listed apart in the source
[27] = biological target: T3, recombinant E. coli-expressed …; assay: cell-based or functional assay; remark: listed apart in the source
[28] = biological target: T1, recombinant E. coli-expressed human …; assay: ELISA, IL-13 binding to IL13Ralpha2/Fc

B1: 586H-TVAAPS-210 (bispecific antibody, human IgG1, kappa)
heavy: not shown
light: DIVMTQSPLSLPVTPGEPASISCRSSQNIVHINGNTYLEWYLQKPGQSPRLLIYKISDRFSGVPDRFSGSGSGTDFTLKISRVEADDVGIYYCFQGSHVPWTFGQGTKLEIKRTVAAPSVFIFPPSDEQLKSGTASVVCLLNNFYPREAKVQWKVDNALQSGNSQESVTEQDSKDSTYSLSSTLTLSKADYEKHKVYACEVTHQGLSSPVTKSFNRGEC
Kd [1]: 0.4 nM
IC50 [2]: 23.8 nM and 21 nM
Mean IC50 (whole blood phospho-STAT6) [3]: 2.68 nM
Mean IC50 (whole blood phospho-STAT6) [4]: 1.23 nM
Kd [5]: 0.38 nM
Kd [6]: 0.381 nM
koff [6]: 0.000347 s⁻¹
kon [6]: 909000 M⁻¹ s⁻¹
Kd [7]: 0.325 nM
koff [7]: 0.000315 s⁻¹
kon [7]: 968000 M⁻¹ s⁻¹

B2: 586H-ELQLE-147 (bispecific antibody, human IgG1, kappa)
heavy: not shown
light: DIVMTQSPLSLPVTPGEPASISCRSSQNIVHINGNTYLEWYLQKPGQSPRLLIYKISDRFSGVPDRFSGSGSGTDFTLKISRVEADDVGIYYCFQGSHVPWTFGQGTKLEIKRTVAAPSVFIFPPSDEQLKSGTASVVCLLNNFYPREAKVQWKVDNALQSGNSQESVTEQDSKDSTYSLSSTLTLSKADYEKHKVYACEVTHQGLSSPVTKSFNRGEC
Kd [1]: 0.51 nM
koff [8]: 1.52e-05 s⁻¹
kon [8]: 701000 M⁻¹ s⁻¹
Kd [9]: 0.027 nM

B3: 586H-TVAAPS-210 GS removed (bispecific antibody, human IgG1, kappa)
heavy: not shown
light: DIVMTQSPLSLPVTPGEPASISCRSSQNIVHINGNTYLEWYLQKPGQSPRLLIYKISDRFSGVPDRFSGSGSGTDFTLKISRVEADDVGIYYCFQGSHVPWTFGQGTKLEIKRTVAAPSVFIFPPSDEQLKSGTASVVCLLNNFYPREAKVQWKVDNALQSGNSQESVTEQDSKDSTYSLSSTLTLSKADYEKHKVYACEVTHQGLSSPVTKSFNRGEC
notes: also called BPC1602
Kd [10]: 0.058 nM
koff [10]: 2.86e-05 s⁻¹
kon [10]: 492000 M⁻¹ s⁻¹
binding result [11]: binds
IC50 [2]: 19.2 nM
Kd [12]: 0.562 nM
Kd [13]: 0.501 nM

B4: 586H-TVAAPS-25 (bispecific antibody, human IgG1, kappa)
heavy: not shown
light: DIVMTQSPLSLPVTPGEPASISCRSSQNIVHINGNTYLEWYLQKPGQSPRLLIYKISDRFSGVPDRFSGSGSGTDFTLKISRVEADDVGIYYCFQGSHVPWTFGQGTKLEIKRTVAAPSVFIFPPSDEQLKSGTASVVCLLNNFYPREAKVQWKVDNALQSGNSQESVTEQDSKDSTYSLSSTLTLSKADYEKHKVYACEVTHQGLSSPVTKSFNRGEC
Kd [1]: 0.5 nM
Kd [8]: 0.95 nM
koff [8]: 0.00012 s⁻¹
kon [8]: 127000 M⁻¹ s⁻¹
Kd [5]: 0.38 nM
Kd [14]: 1.1 nM

B5: 586H-ELQLE-25 (bispecific antibody, human IgG1, kappa)
heavy: not shown
light: DIVMTQSPLSLPVTPGEPASISCRSSQNIVHINGNTYLEWYLQKPGQSPRLLIYKISDRFSGVPDRFSGSGSGTDFTLKISRVEADDVGIYYCFQGSHVPWTFGQGTKLEIKRTVAAPSVFIFPPSDEQLKSGTASVVCLLNNFYPREAKVQWKVDNALQSGNSQESVTEQDSKDSTYSLSSTLTLSKADYEKHKVYACEVTHQGLSSPVTKSFNRGEC
Kd [1]: 0.42 nM
koff [8]: 1.63e-06 s⁻¹
kon [8]: 1.26e+06 M⁻¹ s⁻¹
Kd [9]: 0.001 nM

B6: 586H-ELQLE-154 (bispecific antibody, human IgG1, kappa)
heavy: not shown
light: DIVMTQSPLSLPVTPGEPASISCRSSQNIVHINGNTYLEWYLQKPGQSPRLLIYKISDRFSGVPDRFSGSGSGTDFTLKISRVEADDVGIYYCFQGSHVPWTFGQGTKLEIKRTVAAPSVFIFPPSDEQLKSGTASVVCLLNNFYPREAKVQWKVDNALQSGNSQESVTEQDSKDSTYSLSSTLTLSKADYEKHKVYACEVTHQGLSSPVTKSFNRGEC
Kd [1]: 0.44 nM
koff [8]: 3.57e-06 s⁻¹
kon [8]: 1.25e+06 M⁻¹ s⁻¹
Kd [9]: 0.003 nM

B7: BPC1401 (bispecific antibody, human IgG1, kappa)
heavy: not shown
light: QIVLSQSPAILSASPGEKVTMTCRASSSVSYIHWFQQKPGSSPKPWIYATSNLASGVPVRFSGSGSGTSYSLTISRVEAEDAATYYCQQWTSNPPTFGGGTKLEIKRTVAAPSVFIFPPSDEQLKSGTASVVCLLNNFYPREAKVQWKVDNALQSGNSQESVTEQDSKDSTYSLSSTLTLSKADYEKHKVYACEVTHQGLSSPVTKSFNRGEC
binding result [15]: binds
Kd [16]: 0.313 nM
koff [16]: 0.000182 s⁻¹
kon [16]: 581000 M⁻¹ s⁻¹

B8: PascoH-TVAAPS-567 (bispecific antibody, human IgG1, kappa)
heavy: not shown
light: DIVLTQSPSSLSASVGDRVTITCKASQSVDYDGDSYMNWYQQKPGKAPKLLIYAASNLESGIPSRFSGSGSGTDFTFTISSLQPEDIATYYCQQSNEDPPTFGQGTKVEIKRTVAAPSVFIFPPSDEQLKSGTASVVCLLNNFYPREAKVQWKVDNALQSGNSQESVTEQDSKDSTYSLSSTLTLSKADYEKHKVYACEVTHQGLSSPVTKSFNRGEC
Kd [17]: 8.8 nM
koff [17]: 0.00522 s⁻¹
kon [17]: 592000 M⁻¹ s⁻¹
Kd [18]: 0.038 nM
koff [18]: 1.7e-05 s⁻¹
kon [18]: 446000 M⁻¹ s⁻¹
binding result [19]: binds
Mean ND50 (TF-1) [20]: 2.06 nM
Mean ND50 (TF-1) [21]: 38.2 nM

B9: PascoH-GS-ASTKGPT-474 2nd GS removed (bispecific antibody, human IgG1, kappa)
heavy: not shown
light: DIVLTQSPSSLSASVGDRVTITCKASQSVDYDGDSYMNWYQQKPGKAPKLLIYAASNLESGIPSRFSGSGSGTDFTFTISSLQPEDIATYYCQQSNEDPPTFGQGTKVEIKRTVAAPSVFIFPPSDEQLKSGTASVVCLLNNFYPREAKVQWKVDNALQSGNSQESVTEQDSKDSTYSLSSTLTLSKADYEKHKVYACEVTHQGLSSPVTKSFNRGEC
Kd [22]: 23.8 nM
koff [22]: 0.0114 s⁻¹
kon [22]: 479000 M⁻¹ s⁻¹
Kd [23]: 0.029 nM
koff [23]: 5.3e-05 s⁻¹
kon [23]: 1.83e+06 M⁻¹ s⁻¹
Mean ND50 (TF-1) [24]: 1.37 nM
Mean ND50 (TF-1) [25]: 21.5 nM

B10: PascoH-TVAAPS-546 (bispecific antibody, human IgG1, kappa)
heavy: not shown
light: DIVLTQSPSSLSASVGDRVTITCKASQSVDYDGDSYMNWYQQKPGKAPKLLIYAASNLESGIPSRFSGSGSGTDFTFTISSLQPEDIATYYCQQSNEDPPTFGQGTKVEIKRTVAAPSVFIFPPSDEQLKSGTASVVCLLNNFYPREAKVQWKVDNALQSGNSQESVTEQDSKDSTYSLSSTLTLSKADYEKHKVYACEVTHQGLSSPVTKSFNRGEC
Kd [17]: 12.5 nM
koff [17]: 0.0209 s⁻¹
kon [17]: 1.67e+06 M⁻¹ s⁻¹
Kd [18]: 0.747 nM
koff [18]: 0.000169 s⁻¹
kon [18]: 226000 M⁻¹ s⁻¹
Kd [19]: 0.00482 nM
koff [19]: 2.37e-05 s⁻¹
kon [19]: 4.92e+06 M⁻¹ s⁻¹
Mean ND50 (TF-1) [20]: 1.52 nM
Mean ND50 (TF-1) [21]: 33.9 nM

B11: DOM10-53-616 domain antibody (other)
VH: GVQLLESGGGLVQPGGSLRLSCAASGFVFPWYDMGWVRQAPGKGLEWVSSIDWHGKITYYADSVKGRFTISRDNSKNTLYLQMNSLRAEDTAVYYCATAEDEPGYDYWGQGTLVTVSS
notes: anti-IL-13 dAb
Mean ND50 (TF-1) [20]: 0.536 nM
Mean ND50 (TF-1) [21]: 3.57 nM
Mean ND50 (TF-1) [26]: 0.416 nM
Mean ND50 (TF-1) [27]: 4.81 nM
IC50 [28]: 5.76 nM
